Where two headings read alike, the source gives them in different places.
Tests used:
plants = conditions: expression in plants; Karchi et al. 1993, Galili et al. EP 0485970; cited from earlier work
[1] = system: E. coli lysC aspartate kinase; conditions: known from the literature; cited from earlier work
[2] = system: X. bovienii aspartate kinase; assay: Aspartate kinase enzyme assays and kinetic studies (colorimetric hydroxamate / coupled assay) with purified recombinant His-tagged AK; format: biochemical, Xenorhabdus bovienii; conditions: for Vmax Asp / Km: purified enzyme
Description: The chimeric plasmids containing AK or the desired mutants were transformed into E. coli BL21 (DE3) cells and transformants were selected on LB (Luria-Bertani) medium containing kanamycin (50 μg/mL). For induction of gene expression, transformants selected from single colonies were grown in 100 mL liquid LB supplemented with ampicillin or kanamycin to approximately 0.6 A600, and 0.4 mM. Isopropyl-β-thiogalactopyranoside (IPTG) (Gold Biotechnologies, St. Louis, Mo.) was added, followed by 15 hours incubation at 21° C. and 220 rpm shaking. Cells were harvested by 30 min centrifugation at 7,000×g and washed once with 20 mM Tris-HCl, 150 mM NaCl, pH 7.4. Washed cell pellets were re-suspended in 50 mM K-phosphate buffer (pH7.4, Buffer A) containing 2 mM MgCl2, 50 mM NaCl, 100 units of benzonase (Novagen, San Diego, Calif.) and protease inhibitor cocktail tablets without EDTA (1 tablet/10 mL) (Boehringer Mannheim, Germany). Cells were broken by three passages through a chilled French press cell (SLM-Aminco Spectronic Instruments), operating at 20,000 psi. The lysate was centrifuged by an ultra-centrifuge for 1 hour at 100,000×g, at 4° C. The resulting supernatant was applied to nickel+-nitrilotriacetic acid (Ni+NTA) agarose column (His-Bind resin, Qiagen) and chromatographed according to the supplier's instructions. The column was washed with 3 bed volumes of Buffer A containing 20 mM imidiazole followed by elution with 300 mM imidazole. Enzymatically active fractions of the N-terminal His-tagged […] were pooled, dialyzed against Buffer A without benzonase, and stored in 15% glycerol solution at −80° C. for use in kinetic studies. The enzyme preparation was over 95% pure as judged by Coomassie Blue-stained SDS-PAGE.
Colorimetric Hydroxamate Method. The assay mixture (final volume, 0.8 mL) contained 100 Tris-HCl, pH8.0, 40 mM hydroxylamine-KOH, pH8.0, 25 mM ATP-KOH, pH8.0, 20 mM MgCl2, L-aspartic acid, and 150 mM KCl. The reaction was initiated by addition of AK enzyme, and carried out at 37° C. for 15-30 min. The reaction was terminated by addition of 400 μL acidified ferric chloride (0.37 M FeCl3, 20% TCA, and 0.72 M HCl) and followed by the centrifugation at top speed of microcentrifuge. The formed aspartyl-hydroxamate was determined by colorimetrically at 505 nm. The biosynthetic activity was calculated based on the standard curves of L-aspartyl-hydroxamate or ε505nm.
The assay couples the conversion of ATP to ADP to the oxidation of NADH using pyruvate kinase and lactate dehydrogenase at 30° C. NADH oxidation was monitored kinetically at 340 nm. (See Wampler D E, Westhead E W. (1968), BIOCHEMISTRY 7: 1661-1670.)
Kinetic parameters were determined by measuring product formation in 100 μL reaction mixtures containing various substrate concentrations ranging from 0 to 25 mM. Controls were included for every assay. Values for Km, Vmax, and Kcat were calculated from the rate of the product formation using Michaelis-Menten equations in conjunction with the curve fitting options in the Grafit 5.0 software (Erithacus software Ltd., Horley, UK) (Table 2).

[3] = substrate ATP, read-out: Km ATP
[4] = substrate Asp, read-out: Km Asp

B1: E. coli T352I lysC gene product: E. coli feedback-insensitive (T352I) lysC aspartate kinase, control (protein, listed as Escherichia coli)
chain: MSEIVVSKFGGTSVADFDAMNRSADIVLSDANVRLVVLSASAGITNLLVALAEGLEPGERFEKLDAIRNIQFAILERLRYPNVIREEIERLLENITVLAEAAALATSPALTDELVSHGELMSTLLFVEILRERDVQAQWFDVRKVMRTNDRFGRAEPDVAALAELAALQLLPRLNDGLVITQGFIGSENKGRTTTLGRGGSDYTAALLAEALHASRVDIWTDVPGIYTTDPRVVSAAKRIDEIAFAEAAEMATFGAKVLHPATLLPAVRSDIPVFVGSSKDPRAGGTLVCNKTENPPLFRALALRRNQTLLTLHSLNMLHSRGFLAEVFGILARHNISVDLITTSEVSVALTLDTTGSTSTGDTLLTQSLLMELSALCRVEVEEGLALVALIGNDLSKACGVGKEVFGVLEPFNIRMICYGASSHNLCFLVPGEDAEQVVQKLHFNLFE
- increase in threonine content of the seed (plants): 6-7%
- feedback inhibition by Lys [1]: lysine-insensitive

B2: E. coli lysC gene product: recombinant E. coli lysC aspartate kinase, control sensitive to feedback inhibition by Lys (protein, UniProt P08660 2-449, looked up)
Lysine-sensitive …: SEIVVSKFGGTSVADFDAMNRSADIVLSDANVRLVVLSASAGITNLLVALAEGLEPGERFEKLDAIRNIQFAILERLRYPNVIREEIERLLENITVLAEAAALATSPALTDELVSHGELMSTLLFVEILRERDVQAQWFDVRKVMRTNDRFGRAEPDIAALAELAALQLLPRLNEGLVITQGFIGSENKGRTTTLGRGGSDYTAALLAEALHASRVDIWTDVPGIYTTDPRVVSAAKRIDEIAFAEAAEMATFGAKVLHPATLLPAVRSDIPVFVGSSKDPRAGGTLVCNKTENPPLFRALALRRNQTLLTLHSLNMLHSRGFLAEVFGILARHNISVDLITTSEVSVALTLDTTGSTSTGDTLLTQSLLMELSALCRVEVEEGLALVALIGNDLSKACGVGKEVFGVLEPFNIRMICYGASSHNLCFLVPGEDAEQVVQKLHSNLFE
- feedback inhibition by Lys [1]: sensitive to feedback inhibition by Lys

B3: X. bovienii AK T359I: Xenorhabdus bovienii aspartate kinase variant, Thr 359 replaced with Ile (protein, listed as Xenorhabdus bovienii)
chain: MCAVSSTYPQYVVAKFGGTSVADFDAMNHCADIILANADVRVVVLSASAGVTNLLVALATGCDNDKRKKCLKQIRDIQYAIIDRLNDVNVICEEIDRLLENIEMLSEAASLATSEALTDELVSHGEVMSTLLFVELLRQRNVNAEWFDIRRVMRTNDHFGRAEPDSLQLHISAVELLQPRLNNTVVITQGFIGREEKGRTTTLGRGGSDYTAALLGEALNLQRVDIWTDVPGIYTTDPRVAPTAKRIDKIAFDEAAEMATFGAKILHPATLLPAIRCGIPVFVGSSKDPQAGGTLVCDKTENPPLFRALALRRKQTLLTLHSLKMLHARGFLAEVFTLLLRHNISVDLITTSEVSVALILDTTGSTSTNGSLLTNALLTELSTLCRVEVEEDLALVAIIGNELSQAKGLGKEIFGTLESFNIRMISYGASSHNVCLLVPGQDAESVIQKLHQNLFKV
- Vmax Asp [2]: 0.26 μmoles · min^−1 · mg^−
- Km [2, 3]: 1820 µM
- Km [2, 4]: 2310 µM

B4: X. bovienii AK Wild Type: purified recombinant His-tagged wild-type Xenorhabdus bovienii aspartate kinase (encoded by SEQ ID NO: 6) (protein, listed as Xenorhabdus bovienii)
chain: MCAVSSTYPQYVVAKFGGTSVADFDAMNHCADIILANADVRVVVLSASAGVTNLLVALATGCDNDKRKKCLKQIRDIQYAIIDRLNDVNVICEEIDRLLENIEMLSEAASLATSEALTDELVSHGEVMSTLLFVELLRQRNVNAEWFDIRRVMRTNDHFGRAEPDSLQLHISAVELLQPRLNNTVVITQGFIGREEKGRTTTLGRGGSDYTAALLGEALNLQRVDIWTDVPGIYTTDPRVAPTAKRIDKIAFDEAAEMATFGAKILHPATLLPAIRCGIPVFVGSSKDPQAGGTLVCDKTENPPLFRALALRRKQTLLTLHSLKMLHARGFLAEVFTLLLRHNISVDLITTSEVSVALTLDTTGSTSTNGSLLTNALLTELSTLCRVEVEEDLALVAIIGNELSQAKGLGKEIFGTLESFNIRMISYGASSHNVCLLVPGQDAESVIQKLHQNLFKV
modifications: His tag
- IC50 ([2]; inhibition of the purified enzyme by lysine): 140 µM
- Vmax Asp [2]: 0.29 μmoles · min^−1 · mg^−
- Km [2, 3]: 2560 µM
- Km [2, 4]: 2730 µM

B5: X. bovienii AK E257K/T359I: Xenorhabdus bovienii aspartate kinase double variant E257K/T359I (protein, listed as Xenorhabdus bovienii)
chain: MCAVSSTYPQYVVAKFGGTSVADFDAMNHCADIILANADVRVVVLSASAGVTNLLVALATGCDNDKRKKCLKQIRDIQYAIIDRLNDVNVICEEIDRLLENIEMLSEAASLATSEALTDELVSHGEVMSTLLFVELLRQRNVNAEWFDIRRVMRTNDHFGRAEPDSLQLHISAVELLQPRLNNTVVITQGFIGREEKGRTTTLGRGGSDYTAALLGEALNLQRVDIWTDVPGIYTTDPRVAPTAKRIDKIAFDEAAKMATFGAKILHPATLLPAIRCGIPVFVGSSKDPQAGGTLVCDKTENPPLFRALALRRKQTLLTLHSLKMLHARGFLAEVFTLLLRHNISVDLITTSEVSVALILDTTGSTSTNGSLLTNALLTELSTLCRVEVEEDLALVAIIGNELSQAKGLGKEIFGTLESFNIRMISYGASSHNVCLLVPGQDAESVIQKLHQNLFKV
- Vmax Asp [2]: 0.24 μmoles · min^−1 · mg^−
- Km [2, 3]: 1620 µM
- Km [2, 4]: 3100 µM

B6: X. bovienii AK E257K: Xenorhabdus bovienii aspartate kinase variant, Glu 257 replaced with Lys (protein, listed as Xenorhabdus bovienii)
chain: MCAVSSTYPQYVVAKFGGTSVADFDAMNHCADIILANADVRVVVLSASAGVTNLLVALATGCDNDKRKKCLKQIRDIQYAIIDRLNDVNVICEEIDRLLENIEMLSEAASLATSEALTDELVSHGEVMSTLLFVELLRQRNVNAEWFDIRRVMRTNDHFGRAEPDSLQLHISAVELLQPRLNNTVVITQGFIGREEKGRTTTLGRGGSDYTAALLGEALNLQRVDIWTDVPGIYTTDPRVAPTAKRIDKIAFDEAAKMATFGAKILHPATLLPAIRCGIPVFVGSSKDPQAGGTLVCDKTENPPLFRALALRRKQTLLTLHSLKMLHARGFLAEVFTLLLRHNISVDLITTSEVSVALTLDTTGSTSTNGSLLTNALLTELSTLCRVEVEEDLALVAIIGNELSQAKGLGKEIFGTLESFNIRMISYGASSHNVCLLVPGQDAESVIQKLHQNLFKV
- Vmax Asp [2]: 0.20 μmoles · min^−1 · mg^−
- Km [2, 3]: 1890 µM
- Km [2, 4]: 3060 µM
